Assay in all cases: cell-based or functional assay
Experiment [1] addresses AA-SR-106 (SR-106), IL10RA ECD-IL10RA TM-CD3z ICD.
The target of experiment [2] is AA-SR-121 (SR-121), IL10RA ECD-CD28 TM-CD3z ICD.
Experiment [3] deals with AA-SR-107 (SR-107), IL10RB ECD-IL10RB TM-CD3z ICD.
Experiment [4] deals with AA-SR-122 (SR-122), IL10RB ECD-CD28 TM-CD3z ICD.
Experiment [5] addresses AA-SR-111 (SR-111), PD1 ECD-PD1 TM-CD3z ICD.
The target of experiment [6] is AA-SR-126 (SR-126), PD1 ECD-CD28 TM-CD3z ICD.
AA-SR-126 (SR-126), PD1 ECD-CD28 TM-CD3z ICD, sequence (chain, as listed by the source limits assumed, form in doubt): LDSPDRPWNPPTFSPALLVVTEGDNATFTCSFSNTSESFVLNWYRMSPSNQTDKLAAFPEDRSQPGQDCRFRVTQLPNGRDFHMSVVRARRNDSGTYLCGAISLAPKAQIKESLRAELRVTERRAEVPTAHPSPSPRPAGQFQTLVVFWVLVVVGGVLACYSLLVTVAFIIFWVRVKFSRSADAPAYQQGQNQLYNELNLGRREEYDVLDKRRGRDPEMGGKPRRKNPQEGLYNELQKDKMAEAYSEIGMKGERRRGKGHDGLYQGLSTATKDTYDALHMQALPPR
Experiment [7] deals with AA-TGFB-021 (TGFB-021), TGF-BR2 ECD-CD28 TM-CD3z ICD.
AA-TGFB-021 (TGFB-021), TGF-BR2 ECD-CD28 TM-CD3z ICD, sequence (chain, as listed by the source limits assumed, form in doubt): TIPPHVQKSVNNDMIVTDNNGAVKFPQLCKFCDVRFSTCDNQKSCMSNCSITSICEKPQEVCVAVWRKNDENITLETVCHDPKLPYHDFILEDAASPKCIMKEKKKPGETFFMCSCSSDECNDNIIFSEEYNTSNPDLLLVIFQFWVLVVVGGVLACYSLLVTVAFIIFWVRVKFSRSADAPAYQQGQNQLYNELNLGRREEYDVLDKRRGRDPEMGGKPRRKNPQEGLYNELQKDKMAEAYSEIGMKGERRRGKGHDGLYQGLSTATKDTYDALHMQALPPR
Experiment [8] concerns the target AA-TGFB-007 (TGFB-007), TGF-BR2 ECD-TGFBR2 TM-TGFBR2 truncated ICD (Homo sapiens (Human)) (UniProt P37173).
Experiment [9] deals with AA-SR-124 (SR-124), GP130 ECD-CD28 TM-CD3z ICD.
AA-SR-124 (SR-124), GP130 ECD-CD28 TM-CD3z ICD, sequence (chain, as listed by the source limits assumed, form in doubt): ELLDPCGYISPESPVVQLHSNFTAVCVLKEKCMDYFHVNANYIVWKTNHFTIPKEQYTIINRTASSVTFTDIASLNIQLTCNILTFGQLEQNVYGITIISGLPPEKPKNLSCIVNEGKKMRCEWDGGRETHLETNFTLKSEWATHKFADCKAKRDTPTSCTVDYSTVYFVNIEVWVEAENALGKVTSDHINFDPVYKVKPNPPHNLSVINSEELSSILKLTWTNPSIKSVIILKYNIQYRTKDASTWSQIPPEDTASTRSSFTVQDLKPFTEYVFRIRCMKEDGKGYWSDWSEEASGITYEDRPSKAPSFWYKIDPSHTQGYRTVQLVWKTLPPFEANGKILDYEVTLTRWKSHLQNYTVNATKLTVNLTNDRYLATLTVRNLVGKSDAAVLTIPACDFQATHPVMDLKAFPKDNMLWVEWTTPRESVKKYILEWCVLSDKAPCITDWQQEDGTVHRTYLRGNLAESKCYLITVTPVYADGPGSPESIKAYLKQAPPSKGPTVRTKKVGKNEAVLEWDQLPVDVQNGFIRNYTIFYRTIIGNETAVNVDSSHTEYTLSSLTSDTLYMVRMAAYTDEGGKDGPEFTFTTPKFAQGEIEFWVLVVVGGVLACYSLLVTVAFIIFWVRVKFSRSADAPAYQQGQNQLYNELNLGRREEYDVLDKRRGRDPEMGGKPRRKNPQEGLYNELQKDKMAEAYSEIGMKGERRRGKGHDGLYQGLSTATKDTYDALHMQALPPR
Experiment [10] has as its target AA-SR-109 (SR-109), GP130 ECD-GP130 TM-CD3z ICD.

AA-SR-122 (SR-122), IL10RB ECD-CD28 TM-CD3z ICD, sequence (chain, as listed by the source limits assumed, form in doubt): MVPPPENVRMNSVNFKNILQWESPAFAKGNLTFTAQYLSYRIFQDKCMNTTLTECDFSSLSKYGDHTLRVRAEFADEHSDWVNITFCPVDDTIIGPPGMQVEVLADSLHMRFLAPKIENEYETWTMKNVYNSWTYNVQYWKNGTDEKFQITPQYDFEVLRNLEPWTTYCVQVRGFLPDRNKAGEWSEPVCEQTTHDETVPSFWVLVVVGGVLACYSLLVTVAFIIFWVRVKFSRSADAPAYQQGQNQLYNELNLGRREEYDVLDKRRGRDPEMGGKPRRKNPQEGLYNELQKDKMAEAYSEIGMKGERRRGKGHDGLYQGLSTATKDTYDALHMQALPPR
AA-TGFB-007 (TGFB-007), TGF-BR2 ECD-TGFBR2 TM-TGFBR2 truncated ICD (Homo sapiens (Human)), sequence (P37173 23-199, form in doubt): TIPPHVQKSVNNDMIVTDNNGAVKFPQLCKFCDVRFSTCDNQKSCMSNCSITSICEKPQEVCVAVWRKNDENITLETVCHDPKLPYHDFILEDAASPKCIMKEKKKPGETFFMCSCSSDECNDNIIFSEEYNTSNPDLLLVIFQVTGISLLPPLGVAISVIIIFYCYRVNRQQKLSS
AA-SR-111 (SR-111), PD1 ECD-PD1 TM-CD3z ICD, sequence (chain, as listed by the source limits assumed, form in doubt): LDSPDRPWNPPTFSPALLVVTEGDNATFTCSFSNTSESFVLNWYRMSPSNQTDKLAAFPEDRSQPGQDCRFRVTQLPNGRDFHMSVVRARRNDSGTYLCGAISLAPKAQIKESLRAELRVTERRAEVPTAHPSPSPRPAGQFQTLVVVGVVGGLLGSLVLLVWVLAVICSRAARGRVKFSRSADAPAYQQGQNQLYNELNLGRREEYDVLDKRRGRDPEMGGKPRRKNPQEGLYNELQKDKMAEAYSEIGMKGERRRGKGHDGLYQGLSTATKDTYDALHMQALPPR
AA-SR-121 (SR-121), IL10RA ECD-CD28 TM-CD3z ICD, sequence (chain, as listed by the source limits assumed, form in doubt): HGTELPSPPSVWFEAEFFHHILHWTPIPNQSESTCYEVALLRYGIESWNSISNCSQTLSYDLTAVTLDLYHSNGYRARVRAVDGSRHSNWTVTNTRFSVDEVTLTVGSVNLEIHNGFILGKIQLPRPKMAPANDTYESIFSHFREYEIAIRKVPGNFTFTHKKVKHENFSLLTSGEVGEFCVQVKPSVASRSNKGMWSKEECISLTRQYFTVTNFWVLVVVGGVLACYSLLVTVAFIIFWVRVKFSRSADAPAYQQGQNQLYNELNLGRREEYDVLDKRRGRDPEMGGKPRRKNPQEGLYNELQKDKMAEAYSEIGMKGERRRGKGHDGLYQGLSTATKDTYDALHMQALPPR
AA-SR-109 (SR-109), GP130 ECD-GP130 TM-CD3z ICD, sequence (chain, as listed by the source limits assumed, form in doubt): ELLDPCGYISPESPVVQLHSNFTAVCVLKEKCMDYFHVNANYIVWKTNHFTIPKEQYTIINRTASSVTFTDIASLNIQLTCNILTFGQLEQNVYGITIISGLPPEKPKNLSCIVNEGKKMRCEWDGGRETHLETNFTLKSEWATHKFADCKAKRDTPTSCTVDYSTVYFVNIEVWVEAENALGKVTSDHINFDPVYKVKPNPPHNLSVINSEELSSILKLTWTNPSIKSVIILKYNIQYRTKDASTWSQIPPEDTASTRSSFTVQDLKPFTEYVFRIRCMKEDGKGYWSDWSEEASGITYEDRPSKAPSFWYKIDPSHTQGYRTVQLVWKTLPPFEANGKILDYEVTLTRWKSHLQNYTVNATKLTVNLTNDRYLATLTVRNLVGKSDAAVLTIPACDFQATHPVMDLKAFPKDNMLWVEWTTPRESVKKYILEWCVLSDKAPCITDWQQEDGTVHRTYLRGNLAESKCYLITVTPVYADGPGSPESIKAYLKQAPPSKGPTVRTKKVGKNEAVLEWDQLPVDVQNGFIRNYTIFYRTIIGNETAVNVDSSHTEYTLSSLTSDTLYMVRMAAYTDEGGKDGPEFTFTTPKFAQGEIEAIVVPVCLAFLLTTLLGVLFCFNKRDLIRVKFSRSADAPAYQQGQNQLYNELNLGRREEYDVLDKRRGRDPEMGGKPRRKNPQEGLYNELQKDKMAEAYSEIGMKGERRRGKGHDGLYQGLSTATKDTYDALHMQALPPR
AA-SR-106 (SR-106), IL10RA ECD-IL10RA TM-CD3z ICD, sequence (chain, as listed by the source limits assumed, form in doubt): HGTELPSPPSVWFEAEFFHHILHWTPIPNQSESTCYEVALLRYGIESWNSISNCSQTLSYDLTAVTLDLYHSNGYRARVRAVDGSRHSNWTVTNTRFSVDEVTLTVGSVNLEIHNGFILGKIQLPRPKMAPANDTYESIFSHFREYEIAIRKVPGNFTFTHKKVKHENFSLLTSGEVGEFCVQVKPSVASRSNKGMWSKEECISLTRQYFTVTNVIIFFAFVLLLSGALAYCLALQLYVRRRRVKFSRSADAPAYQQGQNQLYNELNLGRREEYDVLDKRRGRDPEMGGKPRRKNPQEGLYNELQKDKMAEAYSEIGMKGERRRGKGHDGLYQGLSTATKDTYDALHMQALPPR
AA-SR-107 (SR-107), IL10RB ECD-IL10RB TM-CD3z ICD, sequence (chain, as listed by the source limits assumed, form in doubt): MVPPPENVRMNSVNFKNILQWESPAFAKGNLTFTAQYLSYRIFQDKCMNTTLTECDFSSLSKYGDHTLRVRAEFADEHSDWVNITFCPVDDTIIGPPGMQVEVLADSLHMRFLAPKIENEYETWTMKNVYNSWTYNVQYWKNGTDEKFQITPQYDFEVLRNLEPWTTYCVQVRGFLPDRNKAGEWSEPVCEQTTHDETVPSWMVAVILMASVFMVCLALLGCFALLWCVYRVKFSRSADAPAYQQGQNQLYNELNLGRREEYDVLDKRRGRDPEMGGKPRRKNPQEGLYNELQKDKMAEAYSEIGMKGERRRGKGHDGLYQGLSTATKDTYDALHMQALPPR

With anti-IL-10RA mAb clone 37607 (antibody), in experiment [1], the CD69, fold-change of MFI over no stimulation, High (10 ug/mL) came out at 56.8 fold; the CD69, fold-change of MFI over no stimulation, Low (0.4 ug/mL) was 4.9 fold; the CD69, fold-change of MFI over no stimulation, Med. (2 ug/mL) was determined as 29.5 fold; the GFP, fold-change of MFI over no stimulation, High (10 ug/mL) stood at 11.4 fold. Besides, in experiment [1], the GFP, fold-change of MFI over no stimulation, Low (0.4 ug/mL) was 0.8 fold and the GFP, fold-change of MFI over no stimulation, Med. (2 ug/mL) turned out to be 3.3 fold. Further, in experiment [2], the CD69, fold-change of MFI over no stimulation, High (10 ug/mL) came out at 14.3 fold; the CD69, fold-change of MFI over no stimulation, Low (0.4 ug/mL) worked out at 2.2 fold; the CD69, fold-change of MFI over no stimulation, Med. (2 ug/mL) amounted to 7.9 fold; the GFP, fold-change of MFI over no stimulation, High (10 ug/mL) is 5.4 fold. In [2], the GFP, fold-change of MFI over no stimulation, Low (0.4 ug/mL) amounted to 1.1 fold and the GFP, fold-change of MFI over no stimulation, Med. (2 ug/mL) amounted to 2.9 fold.
With anti-IL-10RB mAb clone 90220 (antibody), in [3], the CD69, fold-change of MFI over no stimulation, High (10 ug/mL) was 108 fold; the CD69, fold-change of MFI over no stimulation, Low (0.4 ug/mL) stood at 32.2 fold; the CD69, fold-change of MFI over no stimulation, Med. (2 ug/mL) is 86.1 fold; the GFP, fold-change of MFI over no stimulation, High (10 ug/mL) is 13.8 fold. For the same substance, in experiment [3], the GFP, fold-change of MFI over no stimulation, Low (0.4 ug/mL) turned out to be 2.9 fold and the GFP, fold-change of MFI over no stimulation, Med. (2 ug/mL) was found to be 9.3 fold. In [4], this substance came in with a CD69, fold-change of MFI over no stimulation, High (10 ug/mL) of 115 fold; a CD69, fold-change of MFI over no stimulation, Low (0.4 ug/mL) of 70.1 fold; a CD69, fold-change of MFI over no stimulation, Med. (2 ug/mL) of 118 fold; a GFP, fold-change of MFI over no stimulation, High (10 ug/mL) of 8.2 fold. Further, in [4], the GFP, fold-change of MFI over no stimulation, Low (0.4 ug/mL) worked out at 6.2 fold and the GFP, fold-change of MFI over no stimulation, Med. (2 ug/mL) came to 12.5 fold.
As to anti-PD-1 mAb clone EH12.2H7 (antibody), in experiment [5], the CD69, fold-change of MFI over no stimulation, High (10 ug/mL) was determined as 37.6 fold; the CD69, fold-change of MFI over no stimulation, Low (0.4 ug/mL) was found to be 1.2 fold; the CD69, fold-change of MFI over no stimulation, Med. (2 ug/mL) is 1.9 fold; the GFP, fold-change of MFI over no stimulation, High (10 ug/mL) was 5.8 fold. Also, in experiment [5], the GFP, fold-change of MFI over no stimulation, Low (0.4 ug/mL) stood at 1.3 fold and the GFP, fold-change of MFI over no stimulation, Med. (2 ug/mL) is 1.4 fold. In [6], the CD69, fold-change of MFI over no stimulation, High (10 ug/mL) stood at 27.3 fold; the CD69, fold-change of MFI over no stimulation, Low (0.4 ug/mL) turned out to be 1.1 fold; the CD69, fold-change of MFI over no stimulation, Med. (2 ug/mL) stood at 1.7 fold; the GFP, fold-change of MFI over no stimulation, High (10 ug/mL) is 5.5 fold. Also, in experiment [6], the GFP, fold-change of MFI over no stimulation, Low (0.4 ug/mL) was 0.9 fold and the GFP, fold-change of MFI over no stimulation, Med. (2 ug/mL) is 1.2 fold.
Consider “anti-TGF-BR2 mAb clone W17055E (antibody)”, for which, in experiment [7], the CD69, fold-change of MFI over no stimulation, High (10 ug/mL) was determined as 88.2 fold; the CD69, fold-change of MFI over no stimulation, Low (0.4 ug/mL) worked out at 2.2 fold; the CD69, fold-change of MFI over no stimulation, Med. (2 ug/mL) came to 25.2 fold; the GFP, fold-change of MFI over no stimulation, High (10 ug/mL) is 5 fold. For the same substance, in experiment [7], the GFP, fold-change of MFI over no stimulation, Low (0.4 ug/mL) came to 0.9 fold and the GFP, fold-change of MFI over no stimulation, Med. (2 ug/mL) was found to be 2.9 fold. In experiment [8], this substance showed a CD69, fold-change of MFI over no stimulation, High (10 ug/mL) of 2 fold; a CD69, fold-change of MFI over no stimulation, Low (0.4 ug/mL) of 1.3 fold; a CD69, fold-change of MFI over no stimulation, Med. (2 ug/mL) of 1.5 fold; a GFP, fold-change of MFI over no stimulation, High (10 ug/mL) of 1 fold. Moreover, in experiment [8], the GFP, fold-change of MFI over no stimulation, Low (0.4 ug/mL) turned out to be 0.8 fold and the GFP, fold-change of MFI over no stimulation, Med. (2 ug/mL) stood at 0.9 fold.
For anti-gp130 mAb clone 28126 (antibody), in [9], the CD69, fold-change of MFI over no stimulation, High (10 ug/mL) came to 64.1 fold; the CD69, fold-change of MFI over no stimulation, Low (0.4 ug/mL) was 1.8 fold; the CD69, fold-change of MFI over no stimulation, Med. (2 ug/mL) stood at 40.7 fold; the GFP, fold-change of MFI over no stimulation, High (10 ug/mL) was determined as 3 fold. Further, in experiment [9], the GFP, fold-change of MFI over no stimulation, Low (0.4 ug/mL) was 0.5 fold and the GFP, fold-change of MFI over no stimulation, Med. (2 ug/mL) is 3.9 fold. In [10], this substance gave a CD69, fold-change of MFI over no stimulation, High (10 ug/mL) of 123 fold; a CD69, fold-change of MFI over no stimulation, Low (0.4 ug/mL) of 1.1 fold; a CD69, fold-change of MFI over no stimulation, Med. (2 ug/mL) of 22 fold; a GFP, fold-change of MFI over no stimulation, High (10 ug/mL) of 6.3 fold. In addition, in [10], the GFP, fold-change of MFI over no stimulation, Low (0.4 ug/mL) was found to be 0.5 fold and the GFP, fold-change of MFI over no stimulation, Med. (2 ug/mL) worked out at 2.6 fold.

These data come from patent US20260055162A1.
